# According to the supplement of paper PMC9112550, “Optimization of the antimicrobial peptide Bac7 by deep mutational scanning” (BMC Biology, 2022):
# System: Escherichia coli TOP10
# Test: shrunken log2 fold change of peptide-encoding DNA abundance (4.5 h post-induction vs induction); higher = less antimicrobial activity (less host growth inhibition)
# Conditions: time post-induction: 4.5 h; library: site-saturation at positions 5, 18, 19, 20
# 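Further: peptides expressed intracellularly from a pBAD plasmid library in pooled LB shake-flask culture, induced with 0.3% L-arabinose, DNA abundance read by NGS, three biological replicates, DESeq2 with apeglm shrinkage.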
row,Sequence,shrunken log2 fold change
1,RRIRQRPPRLPRPRPRPHFRPRP,0.092
2,RRIRYRPPRLPRPRPRPHPNPRP,-0.758
3,RRIRERPPRLPRPRPRPQYQPRP,-1.12
4,RRIRKRPPRLPRPRPRPLRYPRP,0.227
5,RRIRYRPPRLPRPRPRPEQSPRP,0.0157
6,RRIRTRPPRLPRPRPRPQHVPRP,-0.0575
7,RRIRVRPPRLPRPRPRPDELPRP,-0.0586
8,RRIRWRPPRLPRPRPRPEIHPRP,-0.0167
9,RRIRGRPPRLPRPRPRPNFDPRP,0.491
10,RRIRFRPPRLPRPRPRPMKRPRP,0.347
11,RRIRSRPPRLPRPRPRPTWNPRP,-0.0149
12,RRIRSRPPRLPRPRPRPGHYPRP,-0.645
13,RRIRIRPPRLPRPRPRPPAPPRP,0.298
14,RRIRFRPPRLPRPRPRPARCPRP,0.44
15,RRIRRRPPRLPRPRPRPLYMPRP,-0.15
16,RRIRSRPPRLPRPRPRPMNFPRP,-0.0407
17,RRIRSRPPRLPRPRPRPPHRPRP,0.182
18,RRIRHRPPRLPRPRPRPGVIPRP,-0.0357
19,RRIRRRPPRLPRPRPRPGWPPRP,0.858
20,RRIRARPPRLPRPRPRPHQIPRP,0.354
21,RRIRHRPPRLPRPRPRPDPIPRP,0.0172
22,RRIRGRPPRLPRPRPRPNLKPRP,0.189
23,RRIRVRPPRLPRPRPRPQMGPRP,0.00696
24,RRIRTRPPRLPRPRPRPTPEPRP,0.08
25,RRIRCRPPRLPRPRPRPHQSPRP,-0.0603

row,Sequence,shrunken log2 fold change
1,RRIRARPPRLPRPRPRPIGCPRP,0.445
2,RRIRCRPPRLPRPRPRPHDPPRP,0.286
3,RRIRKRPPRLPRPRPRPPSAPRP,0.798
4,RRIRCRPPRLPRPRPRPIDHPRP,-1.01
5,RRIRERPPRLPRPRPRPVAFPRP,-0.0756
6,RRIRMRPPRLPRPRPRPPNSPRP,0.128
7,RRIRFRPPRLPRPRPRPQIDPRP,0.0185
8,RRIRSRPPRLPRPRPRPGVWPRP,0.74
9,RRIRLRPPRLPRPRPRPKICPRP,0.0221
10,RRIRMRPPRLPRPRPRPTDSPRP,0.0971
11,RRIRWRPPRLPRPRPRPYSEPRP,-0.0145
12,RRIRQRPPRLPRPRPRPKGFPRP,-0.219
13,RRIRKRPPRLPRPRPRPVSAPRP,0.887
14,RRIRCRPPRLPRPRPRPMIHPRP,-0.466
15,RRIRNRPPRLPRPRPRPCYSPRP,-0.596
16,RRIRWRPPRLPRPRPRPLGFPRP,0.239
17,RRIRDRPPRLPRPRPRPQYRPRP,-0.0135
18,RRIRHRPPRLPRPRPRPCTFPRP,-0.456
19,RRIRCRPPRLPRPRPRPWSIPRP,0.0457
20,RRIRSRPPRLPRPRPRPTMLPRP,-0.119
21,RRIRRRPPRLPRPRPRPFFYPRP,0.0607
22,RRIRTRPPRLPRPRPRPGCPPRP,0.086
23,RRIRWRPPRLPRPRPRPHPAPRP,0.35
24,RRIRARPPRLPRPRPRPMHHPRP,0.112
25,RRIRHRPPRLPRPRPRPRWRPRP,0.355
